# Source: US12006519B2, “Polymerase mutants and use with 3′-OH unblocked reversible terminators” (Agilent Technologies, Inc., priority 2021, dated 2024)
# System: Lightning Terminator-A (LTA)
# Assay: Plate-based single-base extension assay, incorporation of LTA
# Type: biochemical
# Excerpt: This example used saturation mutagenesis at positions 486 and 494 in Pfu D141A/E143A to create additional mutant polymerases. Bacterial extracts were screened in a plate-based single-base extension assay employing Lightning Terminator-A (LTA). Positive clones producing the highest fluorescent signals were sequenced to identify the amino acid replacement. […] Selected lysates, based on screening results, were submitted for sequencing, and an amino acid identification was made based on the selections.
# FIG. 3 illustrates the saturation of position 486 in a Pfu polymerase. The QuikChange kit was used with degenerate NDT codon primers to create a library of Pfu A486 mutants. A NDT codon comprises an A, C, G, or T at the first position, an A, G, or T at the second position, and a T at the third position, thereby introducing variability into the primer. The 12 possible NDT codons represent 12 amino acids (Phe, Leu, Ile, Val, Tyr, His, Asn, Asp, Cys, Arg, Ser, and Gly). Heat-clarified extracts were prepared from 32 randomly selected colonies. Extracts were screened for incorporation of LTA in a microtiter plate assay employing an immobilized dsDNA substrate. […]
# In this example, additional mutant polymerases were derived from Pfu polymerase. […] After washing and UV cleavage (to minimize dye quenching effects), plates were read and fluorescent signals compared to Pfu controls. […]
molecule,measurement,setting,value
"A486R: Pfu D141A/E143A with A486R (protein, Mutant of Pyrococcus furiosus Polymerase) MILDVDYITEEGKPVIRLFKKENGKFKIEHDRTFRPYIYALLRDDSKIEEVKKITGERHGKIVRIVDVEKVEKKFLGKPITVWKLYLEHPQDVPTIREKVREHPAVVDIFEYDIPFAKRYLIDKGLIPMEGEEELKILAFAIATLYHEGEEFGKGPIIMISYADENEAKVITWKNIDLPYVEVVSSEREMIKRFLRIIREKDPDIIVTYNGDSFDFPYLAKRAEKLGIKLTIGRDGSEPKMQRIGDMTAVEVKGRIHFDLYHVITRTINLPTYTLEAVYEAIFGKPKEKVYADEIAKAWESGENLERVAKYSMEDAKATYELGKEFLPMEIQLSRLVGQPLWDVSRSSTGNLVEWFLLRKAYERNEVAPNKPSEEEYQRRLRESYTGGFVKEPEKGLWENIVYLDFRAYYPSIIITHNVSPDTLNLEGCKNYDIAPQVGHKFCKDIPGFIPSLLGHLLEERQKIKTKMKETQDPIEWILLDYRQKRIKLLANSFYGYYGYAKARWYCKECAESVTAWGRKYIELVWKELEEKFGFKVLYIDTDGLHATIPGGESEEIKKKALEFVKYINSKLPGLLELEYEGFYKRGFFVTKKRYAVIDEEGKVITRGLEIVRRDWSEIAKETQARVLETILKHGDVEEAVRIVKEVIQKLANYEIPPEKLAIYEQITRPLHEYKAIGPHVAVAKKLAAKGVKIKPGMVIGYIVLRGDGPISNRAILAEEYDPKKHKYDAEYYIENQVLPAVLRILEGFGYRKEDLRYQKTRQVGLTSWLNIKKS",Incorporation of Lightning Terminators (in words),"Example 5, saturation mutagenesis in Pfu D141A/E143A, bacterial extracts, LTA",improve incorporation of Lightning Terminators
same,Incorporation signals compared to the Pfu A486L control (Pfu10),"Example 6, LTA and/or LTC",superior incorporation signals
